Residue numbers refer to the chain shown, from its start. Names may count otherwise. One block for each binder: values may come before it.
Target: VLDLR(28–797)Δ(751–779)-C-tag (VLDLR ectodomain), P98155-2
Experiment: ELISA
Details: chain shown with the change, VLDLR-ed coated on microtiter plates, background binding to BSA subtracted; for Kd: parent: 79.6 nM; for response (Absorbance (450nm)): fitted binding curve read at Clu 1.0 µM, parent: est. 0.48, read off a plot

response (Absorbance (450nm)): 0.055
B3: wild-type human clusterin (WT Clu), P10909 Y204S; Y206S; L207S; F209S; L211S; F218S; F219S; F220S; L229S; M230S; F232S; Y235S (protein)
chain: MMKTLLLFVGLLLTWESGQVLGDQTVSDNELQEMSNQGSKYVNKEIQNAVNGVKQIKTLIEKTNEERKTLLSNLEEAKKKKEDALNETRESETKLKELPGVCNETMMALWEECKPCLKQTCMKFYARVCRSGSGLVGRQLEEFLNQSSPFYFWMNGDRIDSLLENDRQQTHMLDVMQDHFSRASSIIDELFQDRFFTREPQDTSHSSPSSSPHRRPHSSSPKSRIVRSSSPSSPSEPLNFHAMFQPFLEMIHEAQQAMDIHFHSPAFQHPPTEFIREGDDDRTVCREIRHNSTGCLRMKDQCDKCREILSVDCSTNNPSQAKLRRELDESLQVAERLTRKYNELLKSYQWKMLNTSSLLEQLNEQFNWVSRLANLTQGEDQYYLRVTTVASHTSDSDVPSGVTEVVVKLFDSDPITVTVPVEVSRKNPKFMETVAEKALQEYRKKHREE

response (Absorbance (450nm)): 0.16
B7: wild-type human clusterin (WT Clu), P10909 Y204S; Y206S; L207S; F209S; L211S; F218S; F219S; F220S (protein)
chain: B3 chain with S229L, S230M, S232F, S235Y

Further lines, the binder ahead of its results:

B1: wild-type human clusterin (WT Clu), P10909 L229S; M230S; F232S; Y235S (protein)
chain: B3 chain with S204Y, S206Y, S207L, S209F, S211L, S218F, S219F, S220F
Kd (Clu 0-2.0 µM): 989 nM

B2: wild-type human clusterin (WT Clu), P10909 S161R (protein)
chain 1: DQTVSDNELQEMSNQGSKYVNKEIQNAVNGVKQIKTLIEKTNEERKTLLSNLEEAKKKKEDALNETRESETKLKELPGVCNETMMALWEECKPCLKQTCMKFYARVCRSGSGLVGRQLEEFLNQSSPFYFWMNGDRIDRLLENDRQQTHMLDVMQDHFSRASSIIDELFQDRFFTREPQDTYHYLPFSLPHRRPHFFFPKSRIVR
chain 2: SLMPFSPYEPLNFHAMFQPFLEMIHEAQQAMDIHFHSPAFQHPPTEFIREGDDDRTVCREIRHNSTGCLRMKDQCDKCREILSVDCSTNNPSQAKLRRELDESLQVAERLTRKYNELLKSYQWKMLNTSSLLEQLNEQFNWVSRLANLTQGEDQYYLRVTTVASHTSDSDVPSGVTEVVVKLFDSDPITVTVPVEVSRKNPKFMETVAEKALQEYRKKHREE
Kd (Clu 0-1.0 µM): 376 nM

B4: wild-type human clusterin (WT Clu), P10909 K123Q; R127Q; R130Q; R138Q; R282Q; R286Q; R289Q (protein)
chain: MMKTLLLFVGLLLTWESGQVLGDQTVSDNELQEMSNQGSKYVNKEIQNAVNGVKQIKTLIEKTNEERKTLLSNLEEAKKKKEDALNETRESETKLKELPGVCNETMMALWEECKPCLKQTCMQFYAQVCQSGSGLVGQQLEEFLNQSSPFYFWMNGDRIDSLLENDRQQTHMLDVMQDHFSRASSIIDELFQDRFFTREPQDTYHYLPFSLPHRRPHFFFPKSRIVRSLMPFSPYEPLNFHAMFQPFLEMIHEAQQAMDIHFHSPAFQHPPTEFIREGDDDQTVCQEIQHNSTGCLRMKDQCDKCREILSVDCSTNNPSQAKLRRELDESLQVAERLTRKYNELLKSYQWKMLNTSSLLEQLNEQFNWVSRLANLTQGEDQYYLRVTTVASHTSDSDVPSGVTEVVVKLFDSDPITVTVPVEVSRKNPKFMETVAEKALQEYRKKHREE
Kd (Clu 0-2.0 µM): 1180 nM

B5: wild-type human clusterin (WT Clu), P10909 V369K; A373T; T376K (protein)
chain: B4 chain with Q123K, Q127R, Q130R, Q138R, Q282R, Q286R, Q289R, V369K, A373T, T376K
Kd (Clu 0-1.0 µM): 109 nM

B6: wild-type human clusterin (WT Clu), P10909 Y125F; G132E; L135K; R138E; Q139A; E142S (protein)
chain: MMKTLLLFVGLLLTWESGQVLGDQTVSDNELQEMSNQGSKYVNKEIQNAVNGVKQIKTLIEKTNEERKTLLSNLEEAKKKKEDALNETRESETKLKELPGVCNETMMALWEECKPCLKQTCMKFFARVCRSESGKVGEALESFLNQSSPFYFWMNGDRIDSLLENDRQQTHMLDVMQDHFSRASSIIDELFQDRFFTREPQDTYHYLPFSLPHRRPHFFFPKSRIVRSLMPFSPYEPLNFHAMFQPFLEMIHEAQQAMDIHFHSPAFQHPPTEFIREGDDDRTVCREIRHNSTGCLRMKDQCDKCREILSVDCSTNNPSQAKLRRELDESLQVAERLTRKYNELLKSYQWKMLNTSSLLEQLNEQFNWVSRLANLTQGEDQYYLRVTTVASHTSDSDVPSGVTEVVVKLFDSDPITVTVPVEVSRKNPKFMETVAEKALQEYRKKHREE
Kd (Clu 0-2.0 µM): 1190 nM

B8: wild-type human clusterin (WT Clu), P10909 A108E; L109S; E112K; P115Q; K304A; E307H (protein)
chain: MMKTLLLFVGLLLTWESGQVLGDQTVSDNELQEMSNQGSKYVNKEIQNAVNGVKQIKTLIEKTNEERKTLLSNLEEAKKKKEDALNETRESETKLKELPGVCNETMMESWEKCKQCLKQTCMKFYARVCRSGSGLVGRQLEEFLNQSSPFYFWMNGDRIDSLLENDRQQTHMLDVMQDHFSRASSIIDELFQDRFFTREPQDTYHYLPFSLPHRRPHFFFPKSRIVRSLMPFSPYEPLNFHAMFQPFLEMIHEAQQAMDIHFHSPAFQHPPTEFIREGDDDRTVCREIRHNSTGCLRMKDQCDACRHILSVDCSTNNPSQAKLRRELDESLQVAERLTRKYNELLKSYQWKMLNTSSLLEQLNEQFNWVSRLANLTQGEDQYYLRVTTVASHTSDSDVPSGVTEVVVKLFDSDPITVTVPVEVSRKNPKFMETVAEKALQEYRKKHREE
Kd (Clu 0-1.0 µM): 137 nM

Source: paper PMC12527946
